B1: fibrinogen (complex)
chain 1: ADSGEGDFLAEGGGVRGPRVVERHQSACKDSDWPFCSDEDWNYKCPSGCRMKGLIDEVNQDFTNRINKLKNSLFEYQKNNKDSHSLTTNIMEILRGDFSSANNRDNTYNRVSEDLRSRIEVLKRKVIEKVQHIQLLQKNVRAQLVDMKRLEVDIDIKIRSCRGSCSRALAREVDLKDYEDQQKQLEQVIAKDLLPSRDRQHLPLIKMKPVPDLVPGNFKSQLQKVPPEWKALTDMPQMRMELERPGGNEITRGGSTSYGTGSETESPRNPSSAGSWNSGSSGPGSTGNRNPGSSGTGGTATWKPGSSGPGSTGSWNSGSSGTGSTGNQNPGSPRPGSTGTWNPGSSERGSAGHWTSESSVSGSTGQWHSESGSFRPDSPGSGNARPNNPDWGTFEEVSGNVSPGTRREYHTEKLVTSKGDKELRTGKEKVTSGSTTTTRRSCSKTVTKTVIGPDGHKEVTKEVVTSEDGSDCPEAMDLGTLSGIGTLDGFRHRHPDEAAFFDTASTGKTFPGFFSPMLGEFVSETESRGSESGIFTNTKESSSHHPGIAEFPSRGKSSSYSKQFTSSTSYNRGDSTFESKSYKMADEAGSEADHEGTHSTKRGHAKSRPV
chain 2: QGVNDNEEGFFSARGHRPLDKKREEAPSLRPAPPPISGGGYRARPAKAAATQKKVERKAPDAGGCLHADPDLGVLCPTGCQLQEALLQQERPIRNSVDELNNNVEAVSQTSSSSFQYMYLLKDLWQKRQKQVKDNENVVNEYSSELEKHQLYIDETVNSNIPTNLRVLRSILENLRSKIQKLESDVSAQMEYCRTPCTVSCNIPVVSGKECEEIIRKGGETSEMYLIQPDSSVKPYRVYCDMNTENGGWTVIQNRQDGSVDFGRKWDPYKQGFGNVATNTDGKNYCGLPGEYWLGNDKISQLTRMGPTELLIEMEDWKGDKVKAHYGGFTVQNEANKYQISVNKYRGTAGNALMDGASQLMGENRTMTIHNGMFFSTYDRDNDGWLTSDPRKQCSKEDGGGWWYNRCHAANPNGRYYWGGQYTWDMAKHGTDDGVVWMNWKGSWYSMRKMSMKIRPFFPQQ
chain 3: YVATRDNCCILDERFGSYCPTTCGIADFLSTYQTKVDKDLQSLEDILHQVENKTSEVKQLIKAIQLTYNPDESSKPNMIDAATLKSRKMLEEIMKYEASILTHDSSIRYLQEIYNSNNQKIVNLKEKVAQLEAQCQEPCKDTVQIHDITGKDCQDIANKGAKQSGLYFIKPLKANQQFLVYCEIDGSGNGWTVFQKRLDGSVDFKKNWIQYKEGFGHLSPTGTTEFWLGNEKIHLISTQSAIPYALRVELEDWNGRTSTADYAMFKVGPEADKYRLTYAYFAGGDAGDAFDGFDFGDDPSDKFFTSHNGMQFSTWDNDNDKFEGNCAEQDGSGWWMNKCHAGHLNGVYYQGGTYSKASTPNGYDNGIIWATWKTRWYSMKKTTMKIIPFNRLTIGEGQQHHLGGAKQAGDV
modifications: plasma fibrinogen (AαBβγ)2, disulfide-linked and glycosylated, fibrinopeptides retained; the main circulating forms are assumed (Aα 610 residues, γA 411 residues). The γA chain is taken from PDB …

Tests used:
Assay in all cases: SPR; Biacore T100, CM5 chip, Fn and Fg amine-coupled; His-polypeptides as analytes at 0.5, 1.0, 1.5, 2.0 and 2.5 μM in PBS, 30 μl/min, single cycle kinetics; steady state affinity constants
Conditions in all cases: both partners purified
His-ΔEbh = target: T1, His-ΔEbh (S. aureus subsp. aureus NCTC 8325-4, UniProt Q2FYJ6 40-9535)
T1 construct: the Ebh gene fragment of library clone ΔEbh (as the staphylococcal part of m3), recloned by PCR into pQE30; also called ΔEbh purified 6xHis polypeptide; source: E. coli cytoplasm (pQE30), purified under native conditions (QIAexpress System), dialysed against PBS; not shown: His6, N-terminal, kept

His-ΔCoa = His-ΔCoa (S. aureus subsp. aureus NCTC 8325-4, UniProt Q2G1D3 1-636)
fibrinogen = target: B1
human plasma fibronectin = human plasma fibronectin (human)
Chain of human plasma fibronectin (human) (P02751 other isoform, or with tags, fused parts or gaps, chain 1 of 2): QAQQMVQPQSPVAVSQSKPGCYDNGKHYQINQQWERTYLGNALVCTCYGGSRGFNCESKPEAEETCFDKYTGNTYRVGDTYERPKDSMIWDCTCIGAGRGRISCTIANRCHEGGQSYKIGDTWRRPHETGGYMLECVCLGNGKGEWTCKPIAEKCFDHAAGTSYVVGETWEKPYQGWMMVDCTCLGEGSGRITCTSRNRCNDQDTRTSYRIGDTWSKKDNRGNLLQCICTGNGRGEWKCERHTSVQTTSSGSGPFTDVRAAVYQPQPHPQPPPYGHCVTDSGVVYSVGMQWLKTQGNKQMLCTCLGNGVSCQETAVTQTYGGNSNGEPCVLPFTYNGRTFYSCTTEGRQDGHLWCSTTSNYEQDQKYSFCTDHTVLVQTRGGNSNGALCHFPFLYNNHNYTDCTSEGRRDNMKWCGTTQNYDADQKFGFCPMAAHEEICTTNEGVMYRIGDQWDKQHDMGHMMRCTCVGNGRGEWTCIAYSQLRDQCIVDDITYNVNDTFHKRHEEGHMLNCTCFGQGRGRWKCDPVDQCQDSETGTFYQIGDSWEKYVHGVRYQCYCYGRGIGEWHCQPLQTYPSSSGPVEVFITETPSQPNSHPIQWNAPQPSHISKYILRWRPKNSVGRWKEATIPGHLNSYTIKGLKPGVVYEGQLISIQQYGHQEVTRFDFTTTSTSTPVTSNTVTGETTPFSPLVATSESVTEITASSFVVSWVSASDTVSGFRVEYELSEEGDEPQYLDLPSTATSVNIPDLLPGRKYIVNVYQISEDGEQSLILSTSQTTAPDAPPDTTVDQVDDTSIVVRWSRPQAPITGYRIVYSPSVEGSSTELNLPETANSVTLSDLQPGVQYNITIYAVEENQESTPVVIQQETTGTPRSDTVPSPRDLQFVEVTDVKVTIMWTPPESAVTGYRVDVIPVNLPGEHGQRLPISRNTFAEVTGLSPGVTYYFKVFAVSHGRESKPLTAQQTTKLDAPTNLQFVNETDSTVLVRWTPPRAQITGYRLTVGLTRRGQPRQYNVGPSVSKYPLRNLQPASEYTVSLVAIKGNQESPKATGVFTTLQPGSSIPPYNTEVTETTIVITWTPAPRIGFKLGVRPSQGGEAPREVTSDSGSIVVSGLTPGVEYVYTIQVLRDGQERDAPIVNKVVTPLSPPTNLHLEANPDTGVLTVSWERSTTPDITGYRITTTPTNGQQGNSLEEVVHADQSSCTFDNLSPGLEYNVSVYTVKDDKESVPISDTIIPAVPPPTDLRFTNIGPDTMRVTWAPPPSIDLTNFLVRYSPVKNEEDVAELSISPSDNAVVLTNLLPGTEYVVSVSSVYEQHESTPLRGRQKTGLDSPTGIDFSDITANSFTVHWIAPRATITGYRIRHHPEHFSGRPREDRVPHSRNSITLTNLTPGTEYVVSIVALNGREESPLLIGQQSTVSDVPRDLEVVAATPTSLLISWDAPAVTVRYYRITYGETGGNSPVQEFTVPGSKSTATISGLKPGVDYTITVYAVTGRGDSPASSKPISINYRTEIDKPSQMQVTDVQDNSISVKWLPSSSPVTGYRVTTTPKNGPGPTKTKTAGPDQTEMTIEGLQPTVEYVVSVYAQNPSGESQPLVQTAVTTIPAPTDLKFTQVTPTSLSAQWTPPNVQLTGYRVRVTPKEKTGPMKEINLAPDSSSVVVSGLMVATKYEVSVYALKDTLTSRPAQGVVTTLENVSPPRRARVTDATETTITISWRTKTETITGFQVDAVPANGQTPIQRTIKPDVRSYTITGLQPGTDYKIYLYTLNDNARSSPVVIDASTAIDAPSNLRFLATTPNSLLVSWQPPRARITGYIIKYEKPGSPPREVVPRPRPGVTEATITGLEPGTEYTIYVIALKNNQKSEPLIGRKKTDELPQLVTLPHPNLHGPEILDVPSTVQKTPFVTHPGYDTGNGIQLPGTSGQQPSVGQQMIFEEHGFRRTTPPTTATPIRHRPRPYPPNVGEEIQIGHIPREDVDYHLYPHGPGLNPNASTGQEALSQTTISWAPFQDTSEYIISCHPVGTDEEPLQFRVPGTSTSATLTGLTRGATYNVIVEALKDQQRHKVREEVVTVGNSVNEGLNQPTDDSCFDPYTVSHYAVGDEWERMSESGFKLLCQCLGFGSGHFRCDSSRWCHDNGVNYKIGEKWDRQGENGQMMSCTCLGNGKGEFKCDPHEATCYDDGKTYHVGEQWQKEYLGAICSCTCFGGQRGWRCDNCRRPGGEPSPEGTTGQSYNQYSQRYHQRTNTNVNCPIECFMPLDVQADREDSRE
Chain of human plasma fibronectin (human) (P02751 other isoform, or with tags, fused parts or gaps, chain 2 of 2): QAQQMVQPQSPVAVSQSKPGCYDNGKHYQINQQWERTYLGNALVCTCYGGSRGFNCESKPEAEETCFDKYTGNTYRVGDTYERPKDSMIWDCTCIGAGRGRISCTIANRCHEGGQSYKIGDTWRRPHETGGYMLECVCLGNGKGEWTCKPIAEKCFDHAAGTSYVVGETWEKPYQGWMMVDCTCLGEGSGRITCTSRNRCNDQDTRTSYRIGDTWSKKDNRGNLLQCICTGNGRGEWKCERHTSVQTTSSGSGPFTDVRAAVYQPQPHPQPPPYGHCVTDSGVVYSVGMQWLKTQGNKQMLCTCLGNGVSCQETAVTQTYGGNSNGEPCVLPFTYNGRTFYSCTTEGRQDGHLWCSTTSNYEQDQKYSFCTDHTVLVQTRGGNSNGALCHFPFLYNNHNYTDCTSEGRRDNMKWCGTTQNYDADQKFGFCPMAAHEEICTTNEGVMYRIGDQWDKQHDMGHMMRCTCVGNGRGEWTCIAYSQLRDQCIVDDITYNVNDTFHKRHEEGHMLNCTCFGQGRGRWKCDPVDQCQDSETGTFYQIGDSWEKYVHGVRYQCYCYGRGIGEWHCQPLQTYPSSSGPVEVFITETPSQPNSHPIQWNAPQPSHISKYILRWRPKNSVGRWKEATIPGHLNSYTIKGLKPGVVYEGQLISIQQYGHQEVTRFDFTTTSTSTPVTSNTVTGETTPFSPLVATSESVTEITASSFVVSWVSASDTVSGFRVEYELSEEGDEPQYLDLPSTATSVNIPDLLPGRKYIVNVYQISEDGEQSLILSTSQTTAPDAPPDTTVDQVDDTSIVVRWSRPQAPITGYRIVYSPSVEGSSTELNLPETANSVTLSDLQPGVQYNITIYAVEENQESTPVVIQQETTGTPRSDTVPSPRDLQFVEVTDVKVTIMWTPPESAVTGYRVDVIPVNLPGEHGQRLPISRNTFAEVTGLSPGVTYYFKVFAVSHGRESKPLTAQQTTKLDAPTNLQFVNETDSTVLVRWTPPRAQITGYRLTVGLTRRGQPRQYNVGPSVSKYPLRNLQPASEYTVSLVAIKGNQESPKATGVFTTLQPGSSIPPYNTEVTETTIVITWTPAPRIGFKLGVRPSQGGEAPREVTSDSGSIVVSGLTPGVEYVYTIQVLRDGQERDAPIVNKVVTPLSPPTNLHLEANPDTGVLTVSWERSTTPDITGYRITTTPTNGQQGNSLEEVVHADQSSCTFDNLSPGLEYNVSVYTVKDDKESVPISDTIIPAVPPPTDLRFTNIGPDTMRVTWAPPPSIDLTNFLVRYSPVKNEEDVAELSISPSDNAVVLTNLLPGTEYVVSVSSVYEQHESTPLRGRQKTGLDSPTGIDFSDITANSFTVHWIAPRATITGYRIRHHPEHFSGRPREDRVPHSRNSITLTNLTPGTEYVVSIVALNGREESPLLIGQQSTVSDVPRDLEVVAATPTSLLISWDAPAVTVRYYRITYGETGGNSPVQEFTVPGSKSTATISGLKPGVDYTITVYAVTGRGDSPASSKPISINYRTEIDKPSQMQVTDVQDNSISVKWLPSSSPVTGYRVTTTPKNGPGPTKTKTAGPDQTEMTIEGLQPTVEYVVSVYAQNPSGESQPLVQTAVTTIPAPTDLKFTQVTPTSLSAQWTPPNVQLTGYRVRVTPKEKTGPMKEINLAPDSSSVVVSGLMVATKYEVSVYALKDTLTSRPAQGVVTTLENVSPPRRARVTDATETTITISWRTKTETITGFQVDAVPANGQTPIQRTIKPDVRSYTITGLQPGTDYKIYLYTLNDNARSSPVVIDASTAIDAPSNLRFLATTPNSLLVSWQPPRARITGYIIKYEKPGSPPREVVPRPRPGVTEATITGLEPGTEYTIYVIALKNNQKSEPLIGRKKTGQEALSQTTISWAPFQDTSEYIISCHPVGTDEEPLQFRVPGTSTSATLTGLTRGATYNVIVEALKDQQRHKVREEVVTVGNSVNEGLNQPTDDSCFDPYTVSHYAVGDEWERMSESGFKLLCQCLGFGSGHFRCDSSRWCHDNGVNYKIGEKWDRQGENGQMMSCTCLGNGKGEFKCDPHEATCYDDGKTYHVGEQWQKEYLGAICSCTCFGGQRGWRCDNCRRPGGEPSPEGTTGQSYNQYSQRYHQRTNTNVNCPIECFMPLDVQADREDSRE

| Binder | Kd (His-ΔEbh) | Kd (His-ΔCoa) | Kd (fibrinogen) | Kd (human plasma fibronectin) |
| --- | --- | --- | --- | --- |
| B1 | 1.25 µM | 0.18 µM | – | – |
| His-ΔUsp (domain or fragment, the Usp-like gene fragment of library clone ΔUsp (as the staphylococcal part of m7), recloned by PCR into pQE30; also called ΔUsp purified 6xHis polypeptide; source: E. coli cytoplasm (pQE30), purified under native conditions (QIAexpress System), dialysed against PBS; not shown: His6, N-terminal, kept) MITYKNILIAVDGSHEAEWAFNRAVGVAKRNDAKLTIVNVIDSRTYSSYEVYDAQFTEKSKHFAEELLNGYKEVATNAGVKDVETRLEFGSPKSIIPKKLAHEINADLIMSGTSGLNAVERFIVGSVSESIVRHAPCDVLVVRTEELPADFQPQVATTQLREKYQN | – | – | 6.45 µM | – |
| His-ΔPurK (domain or fragment, the PurK gene fragment of library clone ΔPurK (as the staphylococcal part of m5), recloned by PCR into pQE30; also called ΔPurK purified 6xHis polypeptide; source: E. coli cytoplasm (pQE30), purified under native conditions (QIAexpress System), dialysed against PBS; not shown: His6, N-terminal, kept) MNFNKLKFGATIGIIGGGQLGKMMAQSAQKMGYKVVVLDPSEDCPCRYVAHEFIQAKYDDEKALNQLGQKCDVITYEFENISAQQLKLLCEKYNIPQGYQAIQLLQDRLTEKETLKSAGTKVVPFISVKESTDIDKAIETLGYPFIVKTRFGGYDGKGQVLINNEKDLQEGFKLIETSECVAEKYLNIKKEVSLTVTRGNNNQITFFPLQENEHRNQILFKTIVPARIDKTAEAKEQVNKIIQSIHFIGTFTVEFFIDSNNQLYVNEIAPRPHNSGHYSIEACDYSQFDTHILAVTGQSLPNSIELLKPAVMMNLLGKDLDLLENEFNEHPEWHLHIYGKSERKDSRKMGHMTVLTNDVNQTEQDMYAKFEGSN | – | – | 5.39 µM | 0.443 µM |
| His-ΔFnBPA (domain or fragment, the FnBPA gene fragment of library clone ΔFnBPA (as the staphylococcal part of m2); also called ΔFnBPA purified 6xHis polypeptide; source: E. coli cytoplasm (pQE30), purified under native conditions (QIAexpress System), dialysed against PBS; not shown: His6, N-terminal, kept) ASEQKTTTVEENGNSATDNKTSETQTTATNVNHIEETQSYNATVTEQPSNATQVTTEEAPKAVQAPQTAQPANIETVKEEVVKEEAKPQVKETTQSQDNSGDQRQVDLTPKKATQNQVAETQVEVAQPRTASESKPRVTRSADVAEAKEASNAKVETGTDVTSKVTVEIGSIEGHNNTNKVEPHAGQRAVLKYKLKFENGLHQGDYFDFTLSNNVNTHGVSTARKVPEIKNGSVVMATGEVLEGGKIRYTFTNDIEDKVDVTAELEINLFIDPKTVQTNGNQTITSTLNEEQTSKELDVKYKDGIGNYYANLNGSIETFNKANNRFSHVAFIKPNNGKTTSVTVTGTLMKGSNQNGNQPKVRIFEYLGNNEDIAKSVYANTTDTSKFKEVTSNMSGNLNLQNNGSYSLNIENLDKTYVVHYDGEYLNGTDEVDFRTQMVGHPEQLYKYYYDRGYTLTWDNGLVLYSNKANGNEKNGPIIQNNKFEYKEDTIKETLTGQYDKNLVTTVEEEYDSSTLDIDYHTAIDGGGGYVDGYIETIEETDSSAIDIDYHTAVDSEAGHVGGYTESSEESNPIDFEESTHENSKHHADVVEYEEDTNPGGGQVTTESNLVEFDEESTKGIVTGAVSDHTTVEDTKEYTTESNLIELVDELPEEHGQAQGPVEEITKNNHHISHSGLGTENGHGNYDVIEEIEENSHVDIKSELGYEGGQNSGNQSFEEDTEEDKPKYEQGGNIVDIDFDSVPQIHGQNKGNQSFEEDTEKDKPKYEHGGNIIDIDFDSVPHIHGFNKHTEIIEEDTNKDKPSYQFGGHNSVDFEEDTLPKVSGQNEGQQTIEEDTTPPIVPPTPPTPEVPSEPETPTPPTPEVPSEPETPTPPTPEVPSEPETPTPPTPEVPAEPGKPVPPAKEEPKKPSKPVEQGKVVTPVIEINEKVKAVAPTKKPQSKKSELPET | – | – | – | 5.24 µM |
